In patent publication US20110052551A1, “CARDIAC MYOCYTE MORPHOGENIC COMPOSITIONS AND METHODS OF USE THEREFOR” (priority 2008, published 2011):

What was measured:
[1] = tested on: unfractionated BMMNCs; test: Proliferation of unfractionated BMMNCs (Trypan blue cell count); type: cell-based, mice; settings: cultures initiated with 10^4 cells
Method: Assessment of cellular proliferation. To study proliferation within each experimental group, unfractionated BMMNCs (n=1×10^4) were cultured as above in separate experiments (see FIG. 9A). Cells were monitored by phase contrast microscopy during culture in a humidified 5% CO2 incubator at 37° C. for up to 21 days. The medium was replenished every 6 days and expanded cells were harvested by trypsinization and gentle resuspension on days 8, 16, and 21. Cell number and viability was determined by Trypan blue staining, and the fold-increase in cell number over time was analyzed.

[2] = tested on: unfractionated BMMNCs; test: qRT-PCR of Wnt3a and β-catenin expression in cultured BMMNCs; type: cell-based, mice; settings: 21 days, relative to baseline
Method: Assessment of mRNA expression by quantitative real-time RT-PCR (qRT-PCR). All qRT-PCR reagents and primers were purchased from Qiagen Inc. (Valencia, Calif., United States of America). Prior to mRNA extraction, cell number was determined and calculated by Trypan blue exclusion. cDNA was generated from freshly isolated (designated as baseline) and cultured unfractionated BMMNCs at days 0, 3, 7, and 21 (see FIG. 9A) using QUANTISCRIPT REVERSE TRANSCRIPTASE™ (Qiagen Inc., Valencia, Calif., United States of America) contained in RT master mix of Cell to cDNA kits according to manufacturer's protocol. […]
To avoid amplification of contaminating DNA, all validated qRT-PCR primers were designed to cross […] sequences within the cDNA to be amplified. Quantitative qRT-PCR analysis was performed in an ABI Prism 7900H sequence detection system (Applied Biosystems, Foster City, Calif.) using QUANTITECT™ SYBR® Green Real Time PCR kits. Each 50 μl qRT-PCR reaction contained 2 μl (approximately 50 ng) of cDNA, 5 μl of 1× primer mix (containing approximately 500 nM sense and anti-sense primers) and 25 μl of 2× QUANTITECT™ SYBR® Green master mix. […]
The PCR product level is calculated from the threshold cycle (Ct). That is, the amplification cycle number at which exponential PCR-generated gene-specific fluorescence is first detected (above a fixed threshold level). […]

B1: Wnt3a: recombinant Wnt3a protein, canonical Wnt, used at 150 ng/ml (protein, UniProt P56704 19-352, looked up)
Protein Wnt-3a: SYPIWWSLAVGPQYSSLGSQPILCASIPGLVPKQLRFCRNYVEIMPSVAEGIKIGIQECQHQFRGRRWNCTTVHDSLAIFGPVLDKATRESAFVHAIASAGVAFAVTRSCAEGTAAICGCSSRHQGSPGKGWKWGGCSEDIEFGGMVSREFADARENRPDARSAMNRHNNEAGRQAIASHMHLKCKCHGLSGSCEVKTCWWSQPDFRAIGDFLKDKYDSASEMVVEKHRESRGWVETLRPRYTYFKVPTERDLVYYEASPNFCEPNPETGSFGTRDRTCNVSSHGIDGCDLLCCGRGHNARAERRREKCRCVFHWCCYVSCQECTRVYDVHTCK
- increase in cell number ([1]; day 16): 110±0.1 fold
- increase in cell number ([1]; day 21): 297±0.1 fold
- increase in β-catenin expression [2]: 183.4±0.3 fold
